The record followed here is PMC9392322, “Modulation of macrophage inflammatory function through selective inhibition of the epigenetic reader protein SP140” (BMC Biology, 2022).

The target of one experiment is T1, SP140 (Homo sapiens, UniProt Q13342).
T1 construct: 6HisFLAGTEVSP140 (687-867), PHD-Brd
Kind of experiment: fluorescence polarization competition against GSK064. In kind it is binding. A general note: Polarisation of emitted light reports the rotation of a fluorescent probe.

In experiment [1] the target is T2, 6His-Flag-Tev-SP140-PHD-Brd (687-867) (human, UniProt Q13342 687-867).
T2 construct: SP140 (Speckled 140 kDa), construct spanning the PHD and Brd domains, aa 687-867; also called SP140 (aa 687-867); source: recombinant protein; not shown: His6, N-terminal, kept; FLAG, N-terminal, kept
T2 sequence (Q13342 687-867): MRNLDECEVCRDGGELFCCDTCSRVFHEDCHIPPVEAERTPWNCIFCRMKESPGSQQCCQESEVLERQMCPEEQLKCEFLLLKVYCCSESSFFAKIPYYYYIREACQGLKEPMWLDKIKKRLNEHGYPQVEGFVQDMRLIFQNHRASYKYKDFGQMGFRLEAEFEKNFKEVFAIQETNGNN
The experiment in a line: fluorescence polarisation; competition: H3 peptides serially diluted, displacing 10 nM GSK306 (FAM-labelled GSK761) from 80 nM 6His…140 (687-867); 50 mM HEPES pH 7.5, 50 mM NaCl, 1 mM CHAPS, 1 mM DTT; 30 min. The following applies: both partners purified.

Experiment [2] concerns the target T2, 6His-Flag-Tev-SP140-PHD-Brd (687-867). The experiment in a line: peptide or protein array; Active Motif modified histone peptide array, peptides on the slide; blocked with 3% BSA; 10 mg/mL 6His-Flag-Tev-SP140-PHD-Brd (687-867) in solution; detected with anti-6His antibody and anti-rabbit IgG HRP; in duplicate. The following applies: both partners purified.

Ends that are not written are not given here. Me3 = trimethyl (trimethyl-lysine)

T1 sequence (Q13342 687-867): as above

For orientation: IC50 means the midpoint of a concentration-inhibition curve. A higher IC50 goes with a need for much substance. With `Cn1c(-c2ccc(C(=O)Nc3cccc(CCOC(C)(C)C)c3)cc2)nc2cc(C(=O)Nc3cccc(CCOC(C)(C)C)c3)ccc21` [GSK761], the half-maximal inhibitory concentration (IC50) at SP140 was determined as 0.0778 ± 0.00827 µM.

B1: biotinylated H3 (1-9) (peptide)
peptide: ARTKQTARK
modifications: also: biotin, position not given here
notes: histone H3, residues 1-9; numbers count on: the protein without the initiator methionine; source: bought: Anaspec library
In experiment [1], B1 displayed an IC50 of 2.83 µM.

B2: H3K4(3Me) (1-10) (peptide)
peptide: ARTK(Me3)QTARKS
notes: histone H3, residues 1-10; numbers count on: the protein without the initiator methionine; source: bought: Anaspec library
The molecule B2 returned a half-maximal inhibitory concentration (IC50) in experiment [1] of 12.5 µM.

B3: unmodified H3_(1-19) peptide (histone peptide array) (peptide)
peptide: ARTKQTARKSTGGKAPRKQ
notes: histone H3, residues 1-19; numbers count on: the protein without the initiator methionine; Spotted on the array slide; source: bought: Active Motif modified histone peptide array
For B3, in experiment [2], the binding result is “binds”.

B4: biotinylated H3(+YCK) (1-18 +YCK) (peptide)
peptide: ARTKQTARKSTGGKAPRKYCK
modifications: also: biotin, position not given here
notes: histone H3, residues 1-18; numbers count on: the protein without the initiator methionine; added residues, printed as '+YCK' after 1-18; also called H3_(1-18); source: bought: Anaspec library
B4 returned a concentration for half-maximal inhibition (IC50) in experiment [1] of 0.27 µM.
